Measurements from US20200239570A1 (CRESCENDO BIOLOGICS, published 2020).
Residue numbers refer to the chain shown, from its start.

B1: Blocking VH-4GS-1.39 (protein, part only; not given: 4GS linker, part only)
VH(A)-linker-VH, part: EVQLVESGGGLVKPGGSLRLSCAASGFTFSDESMTWMRQAPGKGLEWVSYISSGGGVKFYADSVKGRFTISRDNAKNSLYLQMNSLRAEDTAVYYCAREAPLRLGESPHDAFDISGQGTMVTVSSEVQLVESGGGLVQPGRSLRLSCAASGFTFDDYALHWVRQAPGKDLEWVSGISWNGGSYGYADSVKGRFTISRDNAKNSLYLQMNSLRAEDTALYYCVREKGPGLTGSTADYYGLDAWGQGTMVTVSS
B2: Blocking VH-4GS-2.12 (protein, part only; not given: 4GS linker, part only)
VH(A)-linker-VH, part: EVQLVESGGGLVKPGGSLRLSCAASGFTFSDESMTWMRQAPGKGLEWVSYISSGGGVKFYADSVKGRFTISRDNAKNSLYLQMNSLRAEDTAVYYCAREAPLRLGESPHDAFDISGQGTMVTVSSEVQLVESGGGVVRPGGSLRLSCAASGFTFDDYAMSWVRQAPGKGLEWVSGITWNAGSTGYADSVKGRFTISRDNAKNSLYLQMNSLRAEDTALYYCVRDKYSYAWSYDDFDIWGQGTMVTVSS
B3: Humabody VH 1.26 (VHH)
VHH: EVQLVESGGGLVQPGRSLRLSCAASGFTFDDYAMHWVRQAPGKDLEWVSGISWNGGSMGYADSVKGRFTISRDNAKNSLYLQMNSLRAEDTALYYCVREKGPGLTGSTADYYGLDAWGQGTMVTVSS
notes: human VH single domain antibody
B4: Humabody VH 1.33 (VHH)
VHH: B3 VHH with M58Y
notes: as for B3
B5: Humabody VH 1.34 (VHH)
VHH: B3 VHH with M58Q
notes: as for B3
B6: Humabody VH 1.37 (VHH)
VHH: B3 VHH with M34F
notes: as for B3
B7: Humabody VH 1.40 (VHH)
VHH: B3 VHH with M34L, M58Q
notes: as for B3
B8: Humabody VH 1.44 (VHH)
VHH: B3 VHH with M34L, G55S, M58Y
notes: as for B3
B9: Humabody VH 1.47 (VHH)
VHH: B3 VHH with M34F, G55S, M58Y
notes: as for B3
B10: Humabody VH 1.48 (VHH)
VHH: B3 VHH with M34L, G55S, M58Q
notes: as for B3
B11: Humabody VH 1.50 (VHH)
VHH: B3 VHH with M34F, G55A, M58Q
notes: as for B3
B12: 1.21 (VHH)
VHH: B3 VHH with D62A, A116V
notes: also called VH single domain antibody 1.21; Humabody VH 1.21
B13: VH single domain antibody 2.1 (VHH)
VHH: EVQLVESGGGVVRPGGSLRLSCAASGFTFDDYAMSWVRQAPGKGLEWVSGITWNGGSTGYADSVKDRFTISRDNAKNSLYLQMNSLRAEDTALYYCVRDKYSYAWSYDGFDIWGQGTMVTVSS
notes: human VH single domain antibody; also called Humabody VH 2.1; clone 2.1
B14: Humabody VH 2.12 (VHH)
VHH: B13 VHH with G55A, D66G, G109D
notes: as for B3
B15: Humabody VH 2.13 (VHH)
VHH: B13 VHH with G55R, D66G, G109D
notes: as for B3
B16: Humabody VH 2.27 (VHH)
VHH: B13 VHH with G55A, G109D
notes: as for B3
B17: Humabody VH 2.37 (VHH)
VHH: B13 VHH with M34L
notes: as for B3
B18: Humabody VH 2.39 (VHH)
VHH: B13 VHH with M34E
notes: as for B3
B19: Humabody VH 2.52 (VHH)
VHH: B13 VHH with G109V
notes: as for B3
B20: Humabody VH 2.53 (VHH)
VHH: B13 VHH with G109D
notes: as for B3

Experiments:
[1] = target: human PD-1 expressed on cells (CHO human PD-1 cells) (human) (UniProt Q15116)
Chain of human PD-1 expressed on cells (CHO human PD-1 cells) (human) (Q15116 21-288): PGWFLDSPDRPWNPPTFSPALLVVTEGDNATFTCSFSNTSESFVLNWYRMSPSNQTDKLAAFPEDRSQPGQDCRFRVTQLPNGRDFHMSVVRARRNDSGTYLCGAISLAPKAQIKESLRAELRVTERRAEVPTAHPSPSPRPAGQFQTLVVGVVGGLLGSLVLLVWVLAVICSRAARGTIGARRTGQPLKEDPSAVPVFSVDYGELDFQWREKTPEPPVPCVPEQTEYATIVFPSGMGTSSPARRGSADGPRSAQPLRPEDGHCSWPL

[2] = target: T1, recombinant human PD-1 Fc chimera (human, UniProt Q15116 25-167); experiment: SPR (Biacore T200), PD-1-huFc amine-coupled to CM5, single cycle kinetics, 1:1 fit
T1 construct: Bought (R&D 1086-PD); Labelled with europium cryptate in the PD-L2 HTRF assay; also called human PD-1 (R&D Systems cat no. 1086-PD); human PD-1-huFc; not shown: human Fc of the bought chimera
T1 sequence (Q15116 25-167, change not shown): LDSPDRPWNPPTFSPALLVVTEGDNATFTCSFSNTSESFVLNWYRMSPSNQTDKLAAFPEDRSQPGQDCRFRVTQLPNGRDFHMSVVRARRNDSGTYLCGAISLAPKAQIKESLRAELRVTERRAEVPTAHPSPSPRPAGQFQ
Experimental: Binding kinetics of certain VH single domain antibodies binding to human PD-1-huFc were measured by surface plasmon resonance (SPR) technology using Biacore T200 instrument (GE Healthcare). Recombinant human PD-1-huFc was immobilized by standard amine coupling to CM5 sensorschip (GE Healthcare) using 0.01 mg/ml solution of antigen in 10 mM sodium acetate at pH 5.5. For the reference flow cell, a blank immobilisation was carried out. Single cycle kinetics assays were used to study the interaction, a five point, three-fold dilution series of each Humabody® was made with a top concentration of 30 nM. The binding kinetics were followed by flowing the Humabody® over the chip surface in HBS EP+ buffer at a flow rate of 30 μl/min. The contact time for each of the association steps was 180 seconds and the dissociation step was varied between 1200-3600 seconds. The data was fitted to a 1:1 binding model after double reference subtraction using the Biacore T200 Evaluation software.

[3] = target: T2, human PD-1 expressed on cells (CHO human PD-1 cells) (human, UniProt Q15116 21-288); experiment: FMAT epitope competition on CHO human PD-1 cells; competitor 2 nM 1.1-Strep tagged protein
T2 construct: CHO cells in the FMAT assays; Jurkat reporter cells in the reporter assay; primary CD4+ T cells in the mixed lymphocyte reaction; also called CHO TREX human PD1 cell line; CHO PD-1
T2 sequence (Q15116 21-288): as the sequence (Q15116 21-288) above
Experimental: (§1) For the epitope competition assay reagents were prepared in FMAT assay buffer. […] Plates were incubated for a minimum of 1.5 hours at room temperature then fluorescence measured in the FL2 (502 nm-537 nm) and FL5 (677-800 nm) channels on the Mirrorball plate reader (TTP) following excitation at 488 nm and 640 nm. Data was expressed as a % of the total binding control (i.e. % control) after subtraction of the background signal determined from the non-specific binding control wells.

[4] = target: T1, recombinant human PD-1 Fc chimera; experiment: BLI (Octet), PD-1-huFc on biosensor, 1:1 fit
Experimental: Binding kinetics of clones to human PD-1-huFc were measured in real-time bio-layer interferometer based biosensor Octet (ForteBio). Recombinant human PD-1-huFc was either immobilized by standard amine coupling to amine reactive biosensors in 10 mM sodium acetate at pH 5.0 or capture by protein G biosensors (ForteBio). All the binding studies were performed in HBS-ET Octet kinetics buffer. Biosensors were always washed in Octet kinetics buffer in between different steps. A seven point, two-fold dilution series of each Humabody® VH was made with a top concentration in range 100-30 nM. The contact time for each of the association steps was varied between 180-300 seconds and the dissociation step was varied between 400-600 seconds. Kinetic association (kₐ) and dissociation (kd) rate constants were determined by processing and fitting the data to a 1:1 binding model using ForteBio Analysis software.

[5] = target: T2, human PD-1 expressed on cells (CHO …); experiment: FMAT binding assay on CHO human PD-1 cells, detection by anti-His
Source text: Plates were read in the FL2 (502 nm-537 nm) and FL5 (677-800 nm) channels on the TTP Mirrorball plate reader following excitation at 488 nm and 640 nm. Data was gated on FL5 perimeter and peak intensity and the FL2 median mean fluorescence intensity of the gated data used for determination of VH binding.

[6] = target: T3, mouse PD1 (R&D Systems cat no. 1021-PD) (mouse, UniProt Q02242 25-167); experiment: HTRF binding assay, 2 nM mouse PD-1
T3 construct: bought recombinant protein; also called mouse PD-1 protein
T3 sequence (looked up): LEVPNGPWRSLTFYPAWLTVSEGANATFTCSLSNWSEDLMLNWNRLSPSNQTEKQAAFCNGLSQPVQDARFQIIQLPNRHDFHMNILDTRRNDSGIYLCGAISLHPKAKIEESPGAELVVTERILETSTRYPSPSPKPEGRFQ

[7] = target: T2, human PD-1 expressed on cells (CHO …); experiment: FMAT, His-tagged VH on CHO human PD-1 cells
[8] = target: T1, recombinant human PD-1 Fc chimera; experiment: HTRF binding assay, His-tagged VH on 2 nM recombinant PD-1
Experimental: (§2) Purified VH were tested for their ability to bind to human PD-1 (R&D Systems cat no. 1086-PD), cynomolgus PD-1 (Acro Biosystems cat no. PD1-C5254) and mouse PD1 (R&D Systems cat no. 1021-PD) in an HTRF Binding assay format. All reagents and serially diluted VH were prepared in assay buffer containing PBS, 0.1% BSA and 0.4M Potassium Fluoride. Samples or assay buffer (non-specific binding) were incubated with 2 nM human/cynomolgus or mouse PD-1, 1 nM Anti human-Fc Cryptate PAb (Cisbio cat. no. 61HFCKLB) and 30 nM anti His-D2 (CisBio cat no 61HISDLA) in black 384-shallow well assay plates for a minimum of 3 hours at room temperature. Time-resolved fluorescent emission at 620 nm and 665 nm was measured following excitation at 337 nm on the BMG PHERAstar plate reader. The HTRF ratio were calculated ((665 nm emission/620 nm emission)*10000) and the data corrected for (non-specific binding) to give the specific binding signal.

[9] = target: T4, cynomolgus PD-1 (Acro Biosystems cat no. PD1-C5254) (cynomolgus, UniProt B0LAJ3 25-170); experiment: as above
T4 construct: bought recombinant protein; also called cyno PD-1; cynomolgus PD-1 recombinant protein; not shown: Human Fc tag of the vendor's construct, and any linker to it; The Fc is implied by detection with anti human-Fc cryptate
T4 sequence (B0LAJ3 entry or part of it limits assumed): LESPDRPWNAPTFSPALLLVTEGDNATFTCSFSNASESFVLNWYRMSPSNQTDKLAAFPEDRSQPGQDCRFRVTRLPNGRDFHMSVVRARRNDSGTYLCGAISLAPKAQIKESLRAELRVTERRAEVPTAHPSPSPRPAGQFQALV
Experimental: as §2

[10] = target: T2, human PD-1 expressed on cells (CHO …); experiment: FMAT epitope competition on CHO human PD-1 cells; competitor 2 nM 2.1-Strep tagged protein
Experimental: as §1

| Kd [2] | koff [2] | kon [2] | IC50 [3] | Kd [4] | koff [4] | kon [4] | other results | Binder |
| --- | --- | --- | --- | --- | --- | --- | --- | --- |
|  |  |  |  |  |  |  | EC50 (read off the curve), NFAT-luciferase reporter [1]: 2 nM | B1 |
|  |  |  |  |  |  |  | EC50 (read off the curve), NFAT-luciferase reporter [1]: 1 nM | B2 |
| 7.94 nM | 0.00211 s⁻¹ | 265000 M⁻¹ s⁻¹ | 8 nM |  |  |  |  | B3 |
|  |  |  | 2.5 nM | 2 nM | 0.00074 s⁻¹ | 370000 M⁻¹ s⁻¹ |  | B4 |
|  |  |  | 6.5 nM | 3.6 nM | 0.0007 s⁻¹ | 190000 M⁻¹ s⁻¹ |  | B5 |
|  |  |  | 7.5 nM | 5.5 nM | 0.0013 s⁻¹ | 240000 M⁻¹ s⁻¹ |  | B6 |
| 5.98 nM | 0.00145 s⁻¹ | 243000 M⁻¹ s⁻¹ |  |  |  |  |  | B7 |
| 9.1 nM | 0.00204 s⁻¹ | 224000 M⁻¹ s⁻¹ |  |  |  |  |  | B8 |
| 10.2 nM | 0.00254 s⁻¹ | 248000 M⁻¹ s⁻¹ |  |  |  |  |  | B9 |
| 16.2 nM | 0.00291 s⁻¹ | 180000 M⁻¹ s⁻¹ |  |  |  |  |  | B10 |
| 14.3 nM | 0.00229 s⁻¹ | 160000 M⁻¹ s⁻¹ |  |  |  |  |  | B11 |
|  |  |  |  |  |  |  | EC50 (read off the curve) [5]: ~0.7 nM | B12 |
|  |  |  | 9.2 nM | 2.6 nM | 0.0015 s⁻¹ | 590000 M⁻¹ s⁻¹ | binding result [6]: no binding; EC50 [7]: 0.7 nM; EC50 [8]: 3.3 nM; EC50 [9]: 6.3 nM; IC50 [10]: 9.4 nM | B13 |
| 6.89 nM | 0.0385 s⁻¹ | 5.5e+06 M⁻¹ s⁻¹ |  |  |  |  | binding result [6]: no binding; EC50 [7]: 1.3 nM; EC50 [8]: 13 nM; EC50 [9]: 18 nM | B14 |
|  |  |  |  | 25 nM | 0.035 s⁻¹ | 1.3e+06 M⁻¹ s⁻¹ |  | B15 |
|  |  |  | 9 nM |  |  |  | IC50 [10]: 13 nM | B16 |
|  |  |  |  | 3.4 nM | 0.0015 s⁻¹ | 450000 M⁻¹ s⁻¹ |  | B17 |
|  |  |  |  | 1.6 nM | 0.00059 s⁻¹ | 370000 M⁻¹ s⁻¹ |  | B18 |
|  |  |  | 6.5 nM | 3.3 nM | 0.0022 s⁻¹ | 670000 M⁻¹ s⁻¹ | IC50 [10]: 21 nM | B19 |
|  |  |  | 7 nM | 16 nM | 0.017 s⁻¹ | 1e+06 M⁻¹ s⁻¹ | IC50 [10]: 14 nM | B20 |
